According to patent publication US20240270846A1 (published 2024):

B1: GLS3000 Q90P one-amino acid altered one-arm antibody (CE115HA000-pE22Hh / Kn010G3 / GLS3000 Q90P-kappa) (antibody, human IgG1, kappa, L234A L235A, N297A, name in Kabat numbering)
heavy: QVQLVESGGGVVQPGRSLRLSCAASGFTFSNAWMHWVRQAPGKGLEWVAQIKAKSNNYATYYAESVKGRFTISRDDSKNSLYLQMNSLKTEDTAVYYCRYVHYGAYYGVDAWGQGTTVTVSSASTKGPSVFPLAPSSKSTSGGTAALGCLVKDYFPEPVTVSWNSGALTSGVHTFPAVLQSSGLYSLSSVVTVPSSSLGTQTYICNVNHKPSNTKVDKKVEPKSCDKTHTCPPCPAPEAAGGPSVFLFPPKPKDTLMISRTPEVTCVVVDVSHEDPEVKFNWYVDGVEVHNAKTKPREEQYASTYRVVSVLTVLHQDWLNGKEYKCKVSNKALPAPIEKTISKAKGQPREPQVYTLPPSRCELTKNQVSLSCAVKGFYPSDIAVEWESNGQPENNYKTTPPVLDSDGSFFLVSKLTVDKSRWQQGNVFSCSVMHEALHNHYTQKSLSLSPDYKDDDDK
chain: EPKSSDKTHTCPPCPAPELLGGPSVFLFPPKPKDTLMISRTPEVTCVVVDVSHEDPEVKFNWYVDGVEVHNAKTKPREEQYNSTYRVVSVLTVLHQDWLNGKEYKCKVSNKALPAPIEKTISKAKGQPREPQVCTLPPSRDELTKNQVSLWCLVKGFYPSDIAVEWESNGQPENNYKTTPPVLDSDGSFFLYSKLTVDKSRWQQGNVFSCSVMHEALHNRYTQKSLSLSP
light: DIVMTQSPLSLPVTPGEPASISCRSSQSLVHSNRNTYLHWYQQKPGQAPRLLIYKVSNRFSGVPDRFSGSGSGTDFTLKISRVEAEDVGVYYCGPGTQVPYTFGQGTKLEIKRTVAAPSVFIFPPSDEQLKSGTASVVCLLNNFYPREAKVQWKVDNALQSGNSQESVTEQDSKDSTYSLSSTLTLSKADYEKHKVYACEVTHQGLSSPVTKSFNRGEC
notes: One-arm antibody; substitution position in Kabat numbering; also called L chain altered form, Kabat 90 Q to P
B2: GLS3000 Q93R one-amino acid altered one-arm antibody (CE115HA000-pE22Hh / Kn010G3 / GLS3000 Q93R-kappa) (antibody, human IgG1, kappa, L234A L235A, N297A, name in Kabat numbering)
heavy: QVQLVESGGGVVQPGRSLRLSCAASGFTFSNAWMHWVRQAPGKGLEWVAQIKAKSNNYATYYAESVKGRFTISRDDSKNSLYLQMNSLKTEDTAVYYCRYVHYGAYYGVDAWGQGTTVTVSSASTKGPSVFPLAPSSKSTSGGTAALGCLVKDYFPEPVTVSWNSGALTSGVHTFPAVLQSSGLYSLSSVVTVPSSSLGTQTYICNVNHKPSNTKVDKKVEPKSCDKTHTCPPCPAPEAAGGPSVFLFPPKPKDTLMISRTPEVTCVVVDVSHEDPEVKFNWYVDGVEVHNAKTKPREEQYASTYRVVSVLTVLHQDWLNGKEYKCKVSNKALPAPIEKTISKAKGQPREPQVYTLPPSRCELTKNQVSLSCAVKGFYPSDIAVEWESNGQPENNYKTTPPVLDSDGSFFLVSKLTVDKSRWQQGNVFSCSVMHEALHNHYTQKSLSLSPDYKDDDDK
chain: EPKSSDKTHTCPPCPAPELLGGPSVFLFPPKPKDTLMISRTPEVTCVVVDVSHEDPEVKFNWYVDGVEVHNAKTKPREEQYNSTYRVVSVLTVLHQDWLNGKEYKCKVSNKALPAPIEKTISKAKGQPREPQVCTLPPSRDELTKNQVSLWCLVKGFYPSDIAVEWESNGQPENNYKTTPPVLDSDGSFFLYSKLTVDKSRWQQGNVFSCSVMHEALHNRYTQKSLSLSP
light: DIVMTQSPLSLPVTPGEPASISCRSSQSLVHSNRNTYLHWYQQKPGQAPRLLIYKVSNRFSGVPDRFSGSGSGTDFTLKISRVEAEDVGVYYCGQGTRVPYTFGQGTKLEIKRTVAAPSVFIFPPSDEQLKSGTASVVCLLNNFYPREAKVQWKVDNALQSGNSQESVTEQDSKDSTYSLSSTLTLSKADYEKHKVYACEVTHQGLSSPVTKSFNRGEC
notes: One-arm antibody; substitution position in Kabat numbering; also called L chain altered form, Kabat 93 Q to R
B3: GLS3000 Q93P one-amino acid altered one-arm antibody (CE115HA000-pE22Hh / Kn010G3 / GLS3000 Q93P-kappa) (antibody, human IgG1, kappa, L234A L235A, N297A, name in Kabat numbering)
heavy: QVQLVESGGGVVQPGRSLRLSCAASGFTFSNAWMHWVRQAPGKGLEWVAQIKAKSNNYATYYAESVKGRFTISRDDSKNSLYLQMNSLKTEDTAVYYCRYVHYGAYYGVDAWGQGTTVTVSSASTKGPSVFPLAPSSKSTSGGTAALGCLVKDYFPEPVTVSWNSGALTSGVHTFPAVLQSSGLYSLSSVVTVPSSSLGTQTYICNVNHKPSNTKVDKKVEPKSCDKTHTCPPCPAPEAAGGPSVFLFPPKPKDTLMISRTPEVTCVVVDVSHEDPEVKFNWYVDGVEVHNAKTKPREEQYASTYRVVSVLTVLHQDWLNGKEYKCKVSNKALPAPIEKTISKAKGQPREPQVYTLPPSRCELTKNQVSLSCAVKGFYPSDIAVEWESNGQPENNYKTTPPVLDSDGSFFLVSKLTVDKSRWQQGNVFSCSVMHEALHNHYTQKSLSLSPDYKDDDDK
chain: EPKSSDKTHTCPPCPAPELLGGPSVFLFPPKPKDTLMISRTPEVTCVVVDVSHEDPEVKFNWYVDGVEVHNAKTKPREEQYNSTYRVVSVLTVLHQDWLNGKEYKCKVSNKALPAPIEKTISKAKGQPREPQVCTLPPSRDELTKNQVSLWCLVKGFYPSDIAVEWESNGQPENNYKTTPPVLDSDGSFFLYSKLTVDKSRWQQGNVFSCSVMHEALHNRYTQKSLSLSP
light: DIVMTQSPLSLPVTPGEPASISCRSSQSLVHSNRNTYLHWYQQKPGQAPRLLIYKVSNRFSGVPDRFSGSGSGTDFTLKISRVEAEDVGVYYCGQGTPVPYTFGQGTKLEIKRTVAAPSVFIFPPSDEQLKSGTASVVCLLNNFYPREAKVQWKVDNALQSGNSQESVTEQDSKDSTYSLSSTLTLSKADYEKHKVYACEVTHQGLSSPVTKSFNRGEC
notes: One-arm antibody; substitution position in Kabat numbering; also called L chain altered form, Kabat 93 Q to P
B4: GLS3000 Q93S one-amino acid altered one-arm antibody (CE115HA000-pE22Hh / Kn010G3 / GLS3000 Q93S-kappa) (antibody, human IgG1, kappa, L234A L235A, N297A, name in Kabat numbering)
heavy: QVQLVESGGGVVQPGRSLRLSCAASGFTFSNAWMHWVRQAPGKGLEWVAQIKAKSNNYATYYAESVKGRFTISRDDSKNSLYLQMNSLKTEDTAVYYCRYVHYGAYYGVDAWGQGTTVTVSSASTKGPSVFPLAPSSKSTSGGTAALGCLVKDYFPEPVTVSWNSGALTSGVHTFPAVLQSSGLYSLSSVVTVPSSSLGTQTYICNVNHKPSNTKVDKKVEPKSCDKTHTCPPCPAPEAAGGPSVFLFPPKPKDTLMISRTPEVTCVVVDVSHEDPEVKFNWYVDGVEVHNAKTKPREEQYASTYRVVSVLTVLHQDWLNGKEYKCKVSNKALPAPIEKTISKAKGQPREPQVYTLPPSRCELTKNQVSLSCAVKGFYPSDIAVEWESNGQPENNYKTTPPVLDSDGSFFLVSKLTVDKSRWQQGNVFSCSVMHEALHNHYTQKSLSLSPDYKDDDDK
chain: EPKSSDKTHTCPPCPAPELLGGPSVFLFPPKPKDTLMISRTPEVTCVVVDVSHEDPEVKFNWYVDGVEVHNAKTKPREEQYNSTYRVVSVLTVLHQDWLNGKEYKCKVSNKALPAPIEKTISKAKGQPREPQVCTLPPSRDELTKNQVSLWCLVKGFYPSDIAVEWESNGQPENNYKTTPPVLDSDGSFFLYSKLTVDKSRWQQGNVFSCSVMHEALHNRYTQKSLSLSP
light: DIVMTQSPLSLPVTPGEPASISCRSSQSLVHSNRNTYLHWYQQKPGQAPRLLIYKVSNRFSGVPDRFSGSGSGTDFTLKISRVEAEDVGVYYCGQGTSVPYTFGQGTKLEIKRTVAAPSVFIFPPSDEQLKSGTASVVCLLNNFYPREAKVQWKVDNALQSGNSQESVTEQDSKDSTYSLSSTLTLSKADYEKHKVYACEVTHQGLSSPVTKSFNRGEC
notes: One-arm antibody; substitution position in Kabat numbering; also called L chain altered form, Kabat 93 Q to S
B5: GLS3000 Q90Y one-amino acid altered one-arm antibody (CE115HA000-pE22Hh / Kn010G3 / GLS3000 Q90Y-kappa) (antibody, human IgG1, kappa, L234A L235A, N297A, name in Kabat numbering)
heavy: QVQLVESGGGVVQPGRSLRLSCAASGFTFSNAWMHWVRQAPGKGLEWVAQIKAKSNNYATYYAESVKGRFTISRDDSKNSLYLQMNSLKTEDTAVYYCRYVHYGAYYGVDAWGQGTTVTVSSASTKGPSVFPLAPSSKSTSGGTAALGCLVKDYFPEPVTVSWNSGALTSGVHTFPAVLQSSGLYSLSSVVTVPSSSLGTQTYICNVNHKPSNTKVDKKVEPKSCDKTHTCPPCPAPEAAGGPSVFLFPPKPKDTLMISRTPEVTCVVVDVSHEDPEVKFNWYVDGVEVHNAKTKPREEQYASTYRVVSVLTVLHQDWLNGKEYKCKVSNKALPAPIEKTISKAKGQPREPQVYTLPPSRCELTKNQVSLSCAVKGFYPSDIAVEWESNGQPENNYKTTPPVLDSDGSFFLVSKLTVDKSRWQQGNVFSCSVMHEALHNHYTQKSLSLSPDYKDDDDK
chain: EPKSSDKTHTCPPCPAPELLGGPSVFLFPPKPKDTLMISRTPEVTCVVVDVSHEDPEVKFNWYVDGVEVHNAKTKPREEQYNSTYRVVSVLTVLHQDWLNGKEYKCKVSNKALPAPIEKTISKAKGQPREPQVCTLPPSRDELTKNQVSLWCLVKGFYPSDIAVEWESNGQPENNYKTTPPVLDSDGSFFLYSKLTVDKSRWQQGNVFSCSVMHEALHNRYTQKSLSLSP
light: DIVMTQSPLSLPVTPGEPASISCRSSQSLVHSNRNTYLHWYQQKPGQAPRLLIYKVSNRFSGVPDRFSGSGSGTDFTLKISRVEAEDVGVYYCGYGTQVPYTFGQGTKLEIKRTVAAPSVFIFPPSDEQLKSGTASVVCLLNNFYPREAKVQWKVDNALQSGNSQESVTEQDSKDSTYSLSSTLTLSKADYEKHKVYACEVTHQGLSSPVTKSFNRGEC
notes: One-arm antibody; substitution position in Kabat numbering; also called L chain altered form, Kabat 90 Q to Y
B6: GLS3000 Q90S one-amino acid altered one-arm antibody (CE115HA000-pE22Hh / Kn010G3 / GLS3000 Q90S-kappa) (antibody, human IgG1, kappa, L234A L235A, N297A, name in Kabat numbering)
heavy: QVQLVESGGGVVQPGRSLRLSCAASGFTFSNAWMHWVRQAPGKGLEWVAQIKAKSNNYATYYAESVKGRFTISRDDSKNSLYLQMNSLKTEDTAVYYCRYVHYGAYYGVDAWGQGTTVTVSSASTKGPSVFPLAPSSKSTSGGTAALGCLVKDYFPEPVTVSWNSGALTSGVHTFPAVLQSSGLYSLSSVVTVPSSSLGTQTYICNVNHKPSNTKVDKKVEPKSCDKTHTCPPCPAPEAAGGPSVFLFPPKPKDTLMISRTPEVTCVVVDVSHEDPEVKFNWYVDGVEVHNAKTKPREEQYASTYRVVSVLTVLHQDWLNGKEYKCKVSNKALPAPIEKTISKAKGQPREPQVYTLPPSRCELTKNQVSLSCAVKGFYPSDIAVEWESNGQPENNYKTTPPVLDSDGSFFLVSKLTVDKSRWQQGNVFSCSVMHEALHNHYTQKSLSLSPDYKDDDDK
chain: EPKSSDKTHTCPPCPAPELLGGPSVFLFPPKPKDTLMISRTPEVTCVVVDVSHEDPEVKFNWYVDGVEVHNAKTKPREEQYNSTYRVVSVLTVLHQDWLNGKEYKCKVSNKALPAPIEKTISKAKGQPREPQVCTLPPSRDELTKNQVSLWCLVKGFYPSDIAVEWESNGQPENNYKTTPPVLDSDGSFFLYSKLTVDKSRWQQGNVFSCSVMHEALHNRYTQKSLSLSP
light: DIVMTQSPLSLPVTPGEPASISCRSSQSLVHSNRNTYLHWYQQKPGQAPRLLIYKVSNRFSGVPDRFSGSGSGTDFTLKISRVEAEDVGVYYCGSGTQVPYTFGQGTKLEIKRTVAAPSVFIFPPSDEQLKSGTASVVCLLNNFYPREAKVQWKVDNALQSGNSQESVTEQDSKDSTYSLSSTLTLSKADYEKHKVYACEVTHQGLSSPVTKSFNRGEC
notes: One-arm antibody; substitution position in Kabat numbering; also called L chain altered form, Kabat 90 Q to S

These binders were tested against T1, CD3 epsilon homodimer protein (UniProt P07766 23-126) (assay: SPR Biacore T200, CD3 epsilon homodimer immobilised on CM4, one-arm antibody as analyte, single-cycle kinetics; reference unaltered GLS3000 antibody;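 further: CD3 epsilon homodimer attached to the CM4 chip via amine coupling, measured at 25 °C with HBS-EP+ as running buffer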).
T1 construct: also called CD3 (CD3 epsilon)
T1 sequence (P07766 23-126): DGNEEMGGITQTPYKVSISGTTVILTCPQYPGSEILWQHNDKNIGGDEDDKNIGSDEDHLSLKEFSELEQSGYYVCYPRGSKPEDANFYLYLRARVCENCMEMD
Procedure: An appropriate amount of CD3 epsilon homodimer protein was immobilized onto Sensor chip CM4 (GE Healthcare Japan Corp.) by the amine coupling method. Then, the antibody having an appropriate concentration was injected thereto as an analyte and allowed to interact with the CD3 epsilon homodimer protein on the sensor chip. Then, the sensor chip was regenerated by the injection of 10 mmol/L glycine-HCl (pH 1.5). The assay was conducted at 25 degrees C., and HBS-EP+(GE Healthcare Japan Corp.) was used as a running buffer. […] Each parameter was calculated using Biacore T200 Evaluation Software (GE Healthcare Japan Corp.).
Specifically, when the amount of the GLS3000-containing antibody bound was defined as X and the amount of the L chain one-amino acid altered form bound was defined as Y, a value of Z (ratio of amounts bound)=Y/X was used.

Going from B1 to B2, the “dissociation constant KD(M) ratio of L chain altered form to GLS3000” value (“dissociation constant KD(M) ratio” below) falls from 15.9 ratio to 0.79 ratio.

First: B3
Second: B4
The “dissociation constant KD(M) ratio” value of the first is higher: 39.5 ratio for the first, 0.75 ratio for the second.

First: B5
Second: B6
The “dissociation constant KD(M) ratio” value of the first is higher: 36.3 ratio for the first, 0.96 ratio for the second.
